# Values quoted from earlier work, collected in publication PMC5855614.
# Biological target: Galectin-3 (Homo sapiens) (UniProt P17931)
# Sequence (P17931 2-250): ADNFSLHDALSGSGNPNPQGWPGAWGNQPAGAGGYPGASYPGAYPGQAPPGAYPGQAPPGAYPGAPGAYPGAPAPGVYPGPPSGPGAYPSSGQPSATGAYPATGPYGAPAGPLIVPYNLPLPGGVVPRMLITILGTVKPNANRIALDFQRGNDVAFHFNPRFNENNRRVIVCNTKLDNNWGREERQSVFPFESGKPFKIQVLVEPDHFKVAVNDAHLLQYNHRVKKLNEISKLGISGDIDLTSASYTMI
substance,measurement,value
G3-C12,Kd,72 nM
